Experimental data: article PMC8828467, “Activation mechanism of PINK1” (Nature, 2021)
Positions count from the first letter of the chain named. Names and notes keep the numbering of the source.

B1: TcPINK1(T172C/D359A) (enzyme, Tribolium castaneum, UniProt D6WMX4 117-570, looked up)
chain: TGILTKEEELEGVCWEIREAISKIKWQYYDIDESRFESNPITLNDLSLGKPIAKGCNGVVYSAKVKDDETDDNKYPFALKMMFNYDIQSNSMEILKAMYRETVPARMYYSNHDLNNWEIELANRRKHLPPHPNIVAIFSVFTDLIQELEGSKDLYPAALPPRLHPEGEGRNMSLFLLMKRYDCNLQSFLSTAPSTRTSLLLLAQLLEGVAHMTAHGIAHRDLKSDNLLLDTSEPESPILVISAFGCCLADKTNGLSLPYTSYEMDKGGNTALMAPEIICQKPGTFSVLNYSKADLWAVGAIAYEIFNCHNPFYGPSRLKNFNYKEGDLPKLPDEVPTVIQALVANLLKRNPNKRLDPEVAANVCQLFLWAPSTWLKPGLKVPTSGEILQWLLSLTTKVLCEGKINNKSFGEKFTRNWRRTYPEYLLISSFLCRAKLANVRNALHWIQENLPELD
notes: PINK1 of Tribolium castaneum with T172C and D359A; also called TcPINK1 with an equivalent T172C mutation; source: E. coli Rosetta2 (DE3) pLacI, purified (Glutathione Sepharose, 3C cleavage, SEC); not shown: GST, N-terminal, cleaved
B2: PhPINK1 (amino acids 143–575) (domain or fragment, Pediculus humanus corporis, UniProt E0W1I1 143-575, looked up)
chain: SESENVEQLQAANLDELDLGEPIAKGCNAVVYSAKLKNVQSNKLAHQLAVKMMFNYDVESNSTAILKAMYRETVPAMSYFFNQNLFNIENISDFKIRLPPHPNIVRMYSVFADRIPDLQCNKQLYPEALPPRINPEGSGRNMSLFLVMKRYDCTLKEYLRDKTPNMRSSILLLSQLLEAVAHMNIHNISHRDLKSDNILVDLSEGDAYPTIVITDFGCCLCDKQNGLVIPYRSEDQDKGGNRALMAPEIANAKPGTFSWLNYKKSDLWAVGAIAYEIFNIDNPFYDKTMKLLSKSYKEEDLPELPDTIPFIIRNLVSNMLSRSTNKRLDCDVAATVAQLYLWAPSSWLKENYTLPNSNEIIQWLLCLSSKVLCERDITARNKTNTMSESVSKAQYKGRRSLPEYELIASFLRRVRLHLVRKGLKWIQELHIYN
notes: PINK1 of Pediculus humanus corporis, amino acids 143–575, lacking the N-helix; also called PhPINK1 without the N-helix; the shorter PhPINK1 construct
B3: PhPINK1(D334A) (amino acids 115–575), unphosphorylated (enzyme)
chain: SGLLTKDDELEGICWEIREAVSKGKWNDSESENVEQLQAANLDELDLGEPIAKGCNAVVYSAKLKNVQSNKLAHQLAVKMMFNYDVESNSTAILKAMYRETVPAMSYFFNQNLFNIENISDFKIRLPPHPNIVRMYSVFADRIPDLQCNKQLYPEALPPRINPEGSGRNMSLFLVMKRYDCTLKEYLRDKTPNMRSSILLLSQLLEAVAHMNIHNISHRALKSDNILVDLSEGDAYPTIVITDFGCCLCDKQNGLVIPYRSEDQDKGGNRALMAPEIANAKPGTFSWLNYKKSDLWAVGAIAYEIFNIDNPFYDKTMKLLSKSYKEEDLPELPDTIPFIIRNLVSNMLSRSTNKRLDCDVAATVAQLYLWAPSSWLKENYTLPNSNEIIQWLLCLSSKVLCERDITARNKTNTMSESVSKAQYKGRRSLPEYELIASFLRRVRLHLVRKGLKWIQELHIYN
notes: pOPINK vector, GST tag removed with 3C PreScission protease; also called unphosphorylated PhPINK1(D334A); monomeric PhPINK1(D334A); source: E. coli Rosetta2 (DE3) pLacI, purified (Glutathione Sepharose, 3C cleavage, SEC); not shown: GST, N-terminal, cleaved
B4: PhPINK1(D357A) (amino acids 115–575) (enzyme)
chain: B3 chain with A220D, D243A
notes: Forms a dodecamer (two rings of three dimers); also called oligomeric PhPINK1(D357A); PhPINK1(D357A) dodecamer; source: E. coli Rosetta2 (DE3) pLacI, purified (Glutathione Sepharose, 3C cleavage, Mono Q for EM, SEC); not shown: GST, N-terminal, cleaved

Columns and labels:
[1] = biological target: the molecule itself; experiment: cross-linking; in vitro disulphide linkage: 1.5 μM PhPINK1 or TcPINK1 with 2 mM H2O2 in 25 mM Tris (pH 7.4), 150 mM NaCl, 22 °C, time course; non-reducing gel, Coomassie
[2] = biological target: the molecule itself; experiment: SEC-MALS; Superdex 200 Increase 10/300 GL; 25 mM Tris (pH 8.5), 150 mM NaCl, 5% (v/v) glycerol, 2 mM TCEP; 100 µl of purified protein at 1 mg ml^−1, 0.5 ml min^−1
[3] = biological target: T1, Ser202-phosphorylated PhPINK1 (amino acids 115–575), monomeric (Pediculus humanus corporis, UniProt E0W1I1 115-575, phosphoserine at 202); experiment: SEC + other: Phos-tag SDS–PAGE; Phos-tag analysis of the oligomer species from the analytical SEC of the mixed proteins; details: both partners purified
T1 construct: PINK1 of Pediculus humanus corporis, amino acids 115–575, wild type, autophosphorylated at Ser202 after dephosphorylation; For the analytical SEC the monomer fractions of the SEC run were pooled; also called phospho-PhPINK1; monomeric phosphorylated PhPINK1; not shown: GST, N-terminal, cleaved
T1 sequence (looked up): B3 chain with A220D

Binder | stoichiometry N [2] | further results
B1 | – | binding result [1]: binds
B2 | 2 | –
B3 | – | stoichiometry N [3]: 1
B4 | 2 | –
